The values that follow come from article PMC13381803, “Phage-encoded factor stimulates DNA degradation by the Hna anti-phage defense system” (Nature Communications, 2026).

Usually stoichiometry N stands for the number of molecules, sites or subunits per partner or assembly.

The target of assay [1] is 5 A SSB escape mutant E49A (phage 5 A (T7-like podovirus)). Kind of assay: native gel or EMSA; native stoichiometry of wild-type 5 A SSB and escape mutants in the absence of DNA; each protein allowed to oligomerize for 1 hour; non-denaturing 4-20% Tris-glycine gel, 4 °C; part of the wild-type sample melted at 95 °C for the monomeric state. On the technique in general: Mobility shift assays separate free from complexed probe on a gel.

Assay [2] concerns the target 5 A SSB escape mutant E38K (phage 5 A (T7-like podovirus)). The assay is described as above.
The target of assay [3] is 5 A SSB escape mutant E201K (phage 5 A (T7-like podovirus)). The assay is described as above.
In assay [4] the target is Hna (helicase-nuclease abortive infection), wild type, Sinorhizobium meliloti (Sinorhizobium meliloti).
The target in assay [5] is Hna with a C-terminal GFP tag. Kind of assay: fluorescence anisotropy. The settings on record: read off a plot. (In general: Fluorescence polarisation rises when a labelled molecule tumbles more slowly, as on binding a larger partner.)
For assay [6], the target named is Hna (helicase-nuclease abortive infection), wild type, Sinorhizobium meliloti. Kind of assay: fluorescence anisotropy competition. As to conditions: in the presence of ATP; cold SSB added to the saturated Hna/GFP-SSB heterodimer; value read at the highest cold SSB concentration (about 2e3 nM); lower …; parent: est. 75; read off a plot.
Assay [7] deals with phage-encoded single-stranded DNA-binding protein of phage 5 A (5 A SSB), wild type (phage 5 A (T7-like podovirus)). Kind of assay: native gel or EMSA; native stoichiometry of wild-type 5 A SSB and escape mutants in the absence of DNA; each protein allowed to oligomerize for 1 hour; non-denaturing 4-20% Tris-glycine gel, 4 °C; part of the wild-type sample melted at 95 °C for the monomeric state.

[8] abbreviates: saturating GFP-Hna homodimer, value read at the highest SSB concentration (about 2e4 nM), starting anisotropy about 100-110 mA, lower anisotropy = more …, parent: est. 22.

As for “5 A SSB escape mutant E49A (natural protein)”, in assay [1], the stoichiometry N turned out to be 2.

As for “5 A SSB escape mutant E38K (natural protein)”, in assay [2], the stoichiometry N was 4.

For “5 A SSB escape mutant E201K (natural protein)”, the stoichiometry N in assay [3] stood at 4.

For the substance “Hna (helicase-nuclease abortive infection), wild type, Sinorhizobium meliloti (enzyme)”, the ssDNA cleavage rate of the Hna dimer mutant (T30A/D31A/P34A) compared to wild-type Hna, capillary electrophoresis in assay [4] was > 10 fold.

On to “Hna (helicase-nuclease abortive infection), wild type, Sinorhizobium meliloti T30A; D31A; P34A”, for which, in assay [5] (+ATP, GFP-Hna at fixed concentration, value is the plateau of the fitted curve at high cold Hna concentration, parent: est. 98), the response came to 10 mA.

Turning to “phage-encoded single-stranded DNA-binding protein of phage 5 A (5 A SSB), wild type E201K”, the results for the response in assay [5] (setting [8]) and in assay [6] were 110 mA and 130 mA, respectively.

As for “phage-encoded single-stranded DNA-binding protein of phage 5 A (5 A SSB), wild type E38K”, in assay [5] (setting [8]), the response worked out at 99 mA.

Turning to “phage-encoded single-stranded DNA-binding protein of phage 5 A (5 A SSB), wild type E49A”, in assay [5] (setting [8]), the response came to 65 mA.

In assay [7], “phage-encoded single-stranded DNA-binding protein of phage 5 A (5 A SSB), wild type (natural protein)” showed a stoichiometry N of 2.
